Test results as given in the DeepSol protein solubility set.

Test: soluble on expression in E. coli; label from the status in PepcDB or PDB records
For “MGSDKIHHHHHHMLKSGGSFFYQVAQGYAMTKQPKTIQEMMTLLVEERGLDITGFSDFSTVLLDCNYYRLSGYFRAFQIDPSHGNNRFRNGTHIKDFMIPYLMDEQLRLLILRGTSSLEQTLRAHFAYYLAQNGGAYSYTELSSYKTIKYSDGTEAREVLIENIHKWLERSSEVCIRHYRNNNEPIPIWAAVEAMPFDTLSKMISLHTNTTAVDELNQSLSLGKNRQRAAQIIHSMVYLRNICSHHCRLWNREIVLPPPVLDATAERYGSYAYEDRSVWKSLIVLMDLIDGIKKNSTYSSMLIKQAESNDNYFWGLCHPKRWH”, the “soluble on expression in E. coli” value was “not soluble”. For “MFGVTLWEMFSGGEEPWAGVPPYLILQRLEDRARLPRPPLCSRALYSLALRCWAPHPADRPSFSHLEGLLQEAGPSEACCVRDVTEPGALRMETGDPITVIEGSPDSTIWKGQNGRTFKVGSFPASAVTLADAGGLPATRPVHRGTPARGDQHPGSIDGDRKKANLWDAPPARGQRRNMPLERMKGISRSLESVLSLGPRPTGGGSSPPEIRQARAVPQGPPGLPPRPPLSSSSPQPSQPSRERLPWPKRKPPHNHPMGMPGARKAAALSGGLLSDPELQRKIMEVELSVHGVTHQECQTALGATGGDVVSAIRNLKVDQLFHLSSRSRADCWRILEHYQWDLSAASRYVLARP”, the “soluble on expression in E. coli” value was “soluble”. In the case of “MSNYPLHQACMENEFFKVQELLHSKPSLLLQKDQDGRIPLHWSVSFQAHEITSFLLSKMENVNLDDYPDDSGWTPFHIACSVGNLEVVKSLYDRPLKPDLNKITNQGVTCLHLAVGKKWFEVSQFLIENGASVRIKDKFNQIPLHRAASVGSLKLIELLCGLGKSAVNWQDKQGWTPLFHALAEGHGDAAVLLVEKYGAEYDLVDNKGAKAEDVALNEQVKKFFLNNVVDKLAAALEHHHHHH”, the “soluble on expression in E. coli” value is reported as “soluble”. With “MGSDKIHHHHHHMDYMKKLLGAEDLFDRDEPLKGVRVLEVCSVVLGPAATDYLAEFGAEVIKFEARRGDQMRYVTPYAYFWRNLSPGLLEQNHNKYWVGMHLGHPKARELFYEFVKRSDVVVDNLTPGRLSKWGISYDRLREINPRIIQLHVSGFGSWGPYTGRTSYDAIAQSEGGLAYITGFEGRGPLKSGVWIADWTTALMCAVAIVAALNYRERTGEGQYIDYSQVENVIRFLDWTWTYVDMTGENRERVGNRDLAICPSDLFDCKDGWVAIVAFSEEEFKGLCQAMGRMDLYEKFADPLERLKDENARLILKEIAEWAKTKTVKDVEELADKYGFAASHVIEVDEAYYSEHLRERGAIMAYDDPLYGEFVEPCYPPRMETPSRLKWGARPLGFDNEFVLTKYLGLSMDEIEQLYEEGVIYRWNPDVKPQCPPPDWDGKKGLKFP” the “soluble on expression in E. coli” value was “not soluble”. In the case of “MSLNELPEFEDYVVLTQQQNQNYKIVQQFNNFDKAILLGTSTFFEGFDFQANGIKCVMIAKLPFMNKHNAKYWLMDSEFTSTFKEYVLPDAVTRFRQGLGRLIRNENDRGIIVSFDDRLINSNYKNFFEQTLENYRQKKGDIQQFGKLLRQIQKEGHHHHHH”, the “soluble on expression in E. coli” value is reported as “not soluble”. For “MRSRVLWGAARWLWPRRAVGPARRPLSSGSPPLEELFARGGPLRTFLERQAGSEAHLKVRRPELLAVIKLLNEKEQELRETEHLLHDENEDLRKLAENEITLCQKEITQLKHQIILLLVPSEETDENDLILEVTAGVGGQEAMLFTSEIFDMYQQYAAFKRWHFETLEYFPSELGGLRHASASIGGSEAYRHMKFEGGVHRVQRVPKTEKQGRVHTSTMTVAILPQPTEINLVINPKDLRIDTKRASGAGGQHVNTTDSAVRIVHLPTGVVSECQQERSQLKNKELAMTKLRAKLYSMHLEEEINKRQNARKIQIGSKGRSEKIRTYNFPQNRVTDHRINKTLHDLETFMQGDYLLDELVQSLKEYADYESLVEIISQKV”, the “soluble on expression in E. coli” value was “soluble”. In the case of “MLNKLSLLLKDAGISLTDHQKNQLIAYVNMLHKWNKAYNLTSVRDPNEMLVRHILDSIVVAPYLQGERFIDVGTGPGLPGIPLSIVRPEAHFTLLDSLGKRVRFLRQVQHELKLENIEPVQSRVEEFPSEPPFDGVISRAFASLNDMVSWCHHLPGEQGRFYALKGQMPEDEIALLPEEYQVESVVKLQVPALDGERHLVVIKANKILEHHHHHH”, the “soluble on expression in E. coli” value is reported as “not soluble”. In the case of “MDGELKNLKCNISQLAAITGLHRQTVVSRLSGVPLAPGSNEKNKLYLLTDVIRVLMEAPVSQAAEHQDPNKMTPKERKDWFDSEKGRLWLEKEMKQVVPLPEVRQQMAAIVKAITQVLEVWPDKLERDKGWSADQLNEAQDVVDEVRILLVKAIQETADDDGE”, the “soluble on expression in E. coli” value is reported as “not soluble”. With “MGSDKIHHHHHHMLHYTKEDLLELGAEITTREIYQQPDVWREAFEFYQAKREEIAAFLQEIADKHDYIKVILTGAGTSAYVGDTLLPYFKEVYDERKWNFNAIATTDIVANPATYLKKDVATVLVSFARSGNSPESLATVDLAKSLVDELYQVTITCAADGKLALQAHGDDRNLLLLQPAVSNDAGFAMTSSFTSMMLTTLLVFDPTEFAVKSERFEVVSSLARKVLDKAEDVKELVDLDFNRVIYLGAGPFFGLAHEAQLKILELTAGQVATMYESPVGFRHGPKSLINDNTVVLVFGTTTDYTRKYDLDLVREVAGDQIARRVVLLSDQAFGLENVKEVALGCGGVLNDIYRVFPYIVYAQLFALLTSLKVENKPDTPSPTGTVNRVVQGVIIHEYQK” the “soluble on expression in E. coli” value was “not soluble”. With “MSLRIVKVRTFHVRPRWLFVAVETDKGVIGWGEAVVEGQARVVERMIGDLAEYLAGRDPRRIEHHWQGMYRGAFYRGGAVLCSAISGIDQALWDITARDLGVPVHALLGGAVRDSVRMYGHARGVTDAEFAHAARRSRSAGMTAIKFGLDGPVRALDTVEYVDRQVARVAAVREAVGPAFDIALDFHGRTSPAMARRLAERLSPMGPLFIEEPCLPENVDALAEIARATNVPIAAGERIFTKWGFRELLERRAVSVVQPDLCHAGGISEVRRIAAMAEAHYVALAPHNPLGPVSLAACLQVAASTPNFLIQEYLALDDGADLGAGILAVPFSVENGHIAVPTGPGLGIEVDEAQLMDRVYAGDWTTPRFTHQDGSHGDWEGHHHHHH” the “soluble on expression in E. coli” value was “not soluble”. In the case of “MAIKGLEQAVENLSRISRTAVPGAAAMAINRVASSAISQSASQVARETKVRRKLVKERARLKRATVKNPQARIKVNRGDLPVIKLGNARVVLSRRRRRKKGQRSSLKGGGSVLVVGNRRIPGAFIQQLKNGRWHVMQRVAGKNRYPIDVVKIPMAVPLTTAFKQNIEQIRRERLPKELGYALQHQLRMVIKR”, the “soluble on expression in E. coli” value is reported as “not soluble”. For “MERGQSLALQSNRNRPYMIRIIQPILRSERRRKLGREYFILHRKLSDCFSSIKWALPAKGDNSHGCSYPVMEHRSLIMRRLKDVDMYMQENKRTNLRLAISKLHGMIIRPGETFSVWRHVGRPTARKGYLEGLVLSQGKIGKGVGGGLCQLGNLLFWMFAHTPLSIVERHRHSFDVFPDINRSIPFGAGATLSYNYIDLRVSNNTPHTYRLELWLDDTHLNGRISSDTEQRDRYRIEETDHRIEHQSWGGYTRHNKLVRIVTRADGSEYTEPFVENHAIMMYNPLLSPPQNGASTSFQR”, the “soluble on expression in E. coli” value was “not soluble”. With “MAITLKTYAYTINRVLYFHTFVKFLFSNLVSFDTFEEIGNDVAVIVFLEHSFTRSHEKRHVCRESLLLSSCNNKLSRIHGLSERISKRYQKPSRGDIVVIRSPENPNKTPIKRVVGVEGDCISFVIDPVKSDESQTIVVPKGHVFVQGDYTHNSRDSRNFGPVPYGLIQGRVLWRDNTTGIVTQVVLDTALLRETTNGLRIKTYQGGSGYVQGIRFTNVEMQDTSAVKISHIMYRNITKSAKAIKFACSDTVPCSHIVLNNVNLEGKDGQVEAYCNSAEGFGYGVYSHNDKGLDQTHKSEEAETGHDEL” the “soluble on expression in E. coli” value was “soluble”. With “MGSDKIHHHHHHMISDSISKRRSIRKYKNQSISHETIEKIIEAGINAPSSKNRQPWRFVVITEKEKESMLKAMSKGIQNEINDNGLLPGSRQHIAGANYTVEIMKQAPVTIFILNILGKSPLEKLSPEERFYEMANMQSIGAAIQNMSLTAVELGLGSLWICDVYFAYRELCEWLNTDSQLVAAISLGYPDEEPSRRPRLQLSDVTEWR” the “soluble on expression in E. coli” value was “not soluble”. In the case of “MGHHHHHHSHMNTKTMRLPPRRVLTADKRKERDAFISSVTDNPPEIAKFPSPPPKLVPPPVNPISKKSSTAAAEPIGSNQLMLAGYLSHEYLTQGTLFGEQWNQARAQAESSKIKPSHTVEPAEECEPKRKRYREVANLLRSDGAQLPGIVNPAQLARFLKL”, the “soluble on expression in E. coli” value is reported as “soluble”. For “MPKEILMPELAESVVEGEILKWLVEEGDYLKKDQPFVEVMTDKVTVELPSPYEGVLLKKLAKEGEVVKVHAPIALIAEPGEAVEGVKEAPPVQAVEERSIVEPGLPAKEEKEDLSLFKPDPTQVAVKNPFLSGEKPQEGARPGRVLAVPAARKLARELGIPIEEVPGSGPLGRVRVEDVRAYAERRKAPPERPEEGPQVLPAGFPPPPKYAPPKGYEHLEERVPLRGIRRTIAQGLWQSHLYTVRTLNVDEADLTELVRLRERLKPQAEAQGVKLTYLPFIVKAVVRALKKFPMLNTSLDEERQEIVYKRYYHIGLAVATERGLIVPVVRDADRKSVLELAQEIAELSQKAREGRLAPEEVTGSTFTITNIGSVGATLSFPIIHLPDAAILGVHSIRKRPWVMPDGSIRPRDIMFLSLSFDHRLVDGAEAAMFTREVIRLLENPDLLLLEM”, the “soluble on expression in E. coli” value was “soluble”. With “MSLKITIRDIAKQAEVSISTVSFVINGKGEKMAISPAVIKKVQDVAQKLQYKPSMIASSLRTGKTRSIGLIVEDISNQFFADLARVIEDEAKNINYRVFYCSTGDDNDRSEELVQSLLQANVEGFIITPTRNLEKTISQLLKLQKPVVLIDRYFANQKVSHVVMDNYEGSYSAVKFLISKGRKNIAVVNNKSGMIQMKLREKGYVEALKEEGIYNEKYTLLLDYHSSEKTRIEEIINFFNQNKEIDAVLFCANYMGLAGLQAFRTLNYKIPNDISVISFDDHDSFKLHTPTISVIAQPIEDIAVESIQLLMSQMTNFEDFKIEKVLKKGTLIIRESVEGHHHHHH” the “soluble on expression in E. coli” value was “soluble”. In the case of “MTATEPTEKILPSPDYVQSLARGLAVIRCFDHRNQRRTLSDVARATDLTRATARRFLLTLVELGYVATDGSAFWLTPRVLELGYSYLSSLSLPEVAQPHLEKLSHKVHESSSVSILDGADIVYVARVPVSRIMTVGITIGTRLPAYATSMGRVLLAGLPDDELDAYLEKLDIQRLTERTITARDELKAAILAVRADGICVLDQELEAGLRSMAAPIRGASGLTVAAVNISTPAARYSLEDLHSDLIPSLRVTATDIEQDLATVNR”, the “soluble on expression in E. coli” value is reported as “soluble”. In the case of “MNKFHDIFLELEQQIVQGDYQPGDLLPSENQLVETYNVSRETIRKALNLLINAGYIQKKQGKGSIVLNFKKFNFPISGVTSYKELQQTQHIESHTHVVSLEEIPVERNLAQLTGWTEGAPVWRLVRQREIEGEVDILDIDYLIKEIVPELPKHRAEDSIFDYLENDLGLAISYAQKEITVEPLTEMDKQLIGEVEGNHVVVVRSIMNLEDTRCFGYTESRHRLNKFKFVEFARRRKL”, the “soluble on expression in E. coli” value is reported as “not soluble”. For “MGSDKIHHHHHHMKISETANKNHEELFPDHKSALKITDPELVEIFDNFAFDEVIQHGDLDTKTRLMVILGALIGSQTLSEYKVMLKGALNVGVTPIEVKEIVYQSVPYVGIAKAYDFINATNEILESRGVKLPLEGQSTTTPENRHEKGLEVQKSIFGEIIDKMYESSPKNQIHIQKYLSANCFGDYYTRTGLDIKTRELLTFCIILALGGCESQLKGHIVGNLNVGNDKKVLLDAVTQTLPYVGYPRTLNAIACLNEIIPE”, the “soluble on expression in E. coli” value was “not soluble”.
